According to patent US20240400703A1 (Genmab, published 2024):

Columns and labels:
[1] = target: T1, human OX40 expressed on cells (human, UniProt P43489 29-277); assay: flow cytometry, activated human CD4+ T cells, donor 1
T1 construct: also called CD134; TNFRSF4
T1 sequence: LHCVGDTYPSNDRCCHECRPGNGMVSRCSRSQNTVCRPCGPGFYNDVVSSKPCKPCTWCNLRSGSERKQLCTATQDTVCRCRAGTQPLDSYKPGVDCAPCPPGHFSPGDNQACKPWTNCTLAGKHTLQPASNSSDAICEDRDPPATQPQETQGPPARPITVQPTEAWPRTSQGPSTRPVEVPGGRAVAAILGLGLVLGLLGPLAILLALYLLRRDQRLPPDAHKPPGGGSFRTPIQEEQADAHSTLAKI

[2] = target: T1, human OX40 expressed on cells; assay: flow cytometry, activated human CD8+ T cells, donor 3
Description: Healthy human donor PBMCs were purified essentially as described in Example 7. The cell concentration was adjusted to 2×10⁶ cells per mL (final concentration) in assay medium and plated in 6-well plates (Greiner, cat. no. 657160). PBMCs were stimulated with 0.3 μg/mL anti-CD3 ([…] Technologies, cat. no. 60011) and 0.5 μg/mL anti-CD28 antibodies (BioLegend, cat. no. 302934) and cultured for two days at 37° C., 5% CO₂. Next, the PBMCs were harvested, counted and brought to a concentration of 2×10⁶ cells per mL in FACS buffer 1 (DPBS with 2% heat-inactivated FBS and 2 mM ethylenediaminetetraacetic acid [EDTA]). […] After 60 min at RT, the cells were prepared for flow cytometric analyses. To this end, the cells were washed twice with 150 μL FACS buffer 1 and 30 μL/well cell-surface antibody mix (Table 9) in FACS buffer 1 containing antibody against human Fcγ antibody (Table 9) and fixable viability dye eFluor780 (1:1,500) was added. The staining procedures were carried out at 4° C. for 15-20 min protected from light. Stained cells were washed twice with 120-150 μL FACS buffer 1 (5 min, 460×g, RT) and resuspended in 60-100 μL FACS buffer 1 for direct flow cytometric analyses. Flow cytometric data were acquired on a FACSymphony A3 and analyzed with FlowJo software.

[3] = target: T2, human OX40 with mouse CRD1 (human with mouse CRD1, UniProt P43489 29-277); assay: flow cytometry, transfected ExpiCHO-S cells, MFI at 5 µg/mL as % of IgG1-CD134-A4453
T2 construct: on ExpiCHO-S cells; also called OX40-CRD1mm; Shuffle 1
T2 chain: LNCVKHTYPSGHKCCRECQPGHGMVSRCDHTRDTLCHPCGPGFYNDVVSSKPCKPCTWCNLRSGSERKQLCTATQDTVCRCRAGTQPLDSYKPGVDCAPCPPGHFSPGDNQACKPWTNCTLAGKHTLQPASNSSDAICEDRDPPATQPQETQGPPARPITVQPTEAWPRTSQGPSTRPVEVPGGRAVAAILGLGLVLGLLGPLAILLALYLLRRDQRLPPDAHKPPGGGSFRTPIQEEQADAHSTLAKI
Description: (§1) The four shuffle constructs, as well as wild-type human and mouse OX40 were transiently expressed on ExpiCHO-S cells using the ExpiFectamine™ CHO Transfection Kit (ThermoFisher, cat. no. A29131), according to the manufacturer's protocol. […] Next, cells were washed twice in FACS buffer 1, were resuspended in a 30 μL solution of viability marker ToPro-3 (Invitrogen, cat. no. T3605, diluted 1:10,000) in FACS buffer 1 supplemented with 2 mM EDTA, and were analyzed on an iQue Screener Plus (Intellicyt Corporation, USA). Data were analyzed using FlowJo software and visualized using GraphPad Prism.

[4] = target: T3, human OX40 with mouse CRD2 (human with mouse CRD2, UniProt P43489 29-277); assay: as above
T3 construct: on ExpiCHO-S cells; also called OX40-CRD2mm; Shuffle 2
T3 chain: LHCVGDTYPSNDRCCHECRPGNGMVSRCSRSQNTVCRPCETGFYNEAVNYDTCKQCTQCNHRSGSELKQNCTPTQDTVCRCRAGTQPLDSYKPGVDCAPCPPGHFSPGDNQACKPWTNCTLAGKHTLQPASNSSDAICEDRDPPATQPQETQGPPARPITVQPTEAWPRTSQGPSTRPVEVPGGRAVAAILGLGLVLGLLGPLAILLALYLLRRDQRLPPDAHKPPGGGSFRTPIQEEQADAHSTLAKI
Description: as §1

[5] = target: T4, human OX40 with mouse CRD3 (human with mouse CRD3, UniProt P43489 29-277); assay: as above
T4 construct: on ExpiCHO-S cells; also called OX40-CRD3mm; Shuffle 3
T4 chain: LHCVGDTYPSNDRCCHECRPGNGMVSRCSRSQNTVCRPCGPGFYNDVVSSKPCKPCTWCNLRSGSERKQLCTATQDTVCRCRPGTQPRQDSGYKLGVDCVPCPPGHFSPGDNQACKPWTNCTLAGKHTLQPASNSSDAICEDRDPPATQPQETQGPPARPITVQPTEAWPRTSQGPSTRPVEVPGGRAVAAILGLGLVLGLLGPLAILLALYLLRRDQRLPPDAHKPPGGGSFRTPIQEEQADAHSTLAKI
Description: as §1

[6] = target: T5, human OX40 with mouse CRD4 (human with mouse CRD4, UniProt P43489 29-277); assay: as above
T5 construct: on ExpiCHO-S cells; also called OX40-CRD4mm; Shuffle 4
T5 chain: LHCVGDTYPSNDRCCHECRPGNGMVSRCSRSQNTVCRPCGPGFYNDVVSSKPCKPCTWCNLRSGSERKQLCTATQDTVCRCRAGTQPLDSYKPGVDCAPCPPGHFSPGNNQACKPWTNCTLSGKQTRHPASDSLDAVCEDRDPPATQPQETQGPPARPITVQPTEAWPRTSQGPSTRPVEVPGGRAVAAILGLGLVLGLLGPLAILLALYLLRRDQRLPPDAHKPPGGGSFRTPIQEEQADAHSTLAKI
Description: as §1

B1: IgG1-CD134-003-HC6LC2-P329R-E345R (antibody)
heavy: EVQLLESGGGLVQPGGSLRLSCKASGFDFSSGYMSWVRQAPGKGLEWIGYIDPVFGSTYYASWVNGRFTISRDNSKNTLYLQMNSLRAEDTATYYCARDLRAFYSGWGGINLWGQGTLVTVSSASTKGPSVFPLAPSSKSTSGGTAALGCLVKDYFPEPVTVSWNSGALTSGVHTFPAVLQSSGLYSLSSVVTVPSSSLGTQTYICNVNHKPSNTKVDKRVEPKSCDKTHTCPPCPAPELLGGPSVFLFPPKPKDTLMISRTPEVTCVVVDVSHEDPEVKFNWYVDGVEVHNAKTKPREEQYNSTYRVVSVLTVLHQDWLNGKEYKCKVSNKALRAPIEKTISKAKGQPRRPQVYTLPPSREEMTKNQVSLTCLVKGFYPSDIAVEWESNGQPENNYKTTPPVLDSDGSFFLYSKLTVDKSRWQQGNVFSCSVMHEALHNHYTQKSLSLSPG
light: AAVLTQSPSSLSASVGDRVTITCQSSQIVVNNNFLSWYQQKPGKAPKLLIYDASNLASGVPDRFSGSGSGTDFTFTISSLQPEDIATYYCLGGYDDDAENAFGGGTKVEIKRTVAAPSVFIFPPSDEQLKSGTASVVCLLNNFYPREAKVQWKVDNALQSGNSQESVTEQDSKDSTYSLSSTLTLSKADYEKHKVYACEVTHQGLSSPVTKSFNRGEC
notes: humanized; human IgG1 with P329R and E345R (Eu numbering), kappa; also called IgG1-CD134-003-HC6LC2-RR
In the case of B1, the EC50 [1] is reported as 0.0273 µg/mL, the EC50 [2] is reported as 0.0217 µg/mL and the binding result [3] is reported as “no binding (tested: 5 µg/mL)”. B1: binds [4]; binds [5]; binds [6].
